Patent publication US20260232732A1 (FUNDACI INSTITUT DE RECERCA CONTRA LA LEUC MIA JOSEP …, published 2026)
Where no end group is shown, it is not given here. The star is where a group is joined. Biotin = O=C1N[C@H]2[C@H](CS[C@H]2CCCCC(=O)*)N1

T1: naked peptide 1a MTPTDFTSPIPNMADDYGSESTSS (human)
T1 construct: also called region 1-24
T1 peptide: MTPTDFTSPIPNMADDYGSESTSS

T2: naked peptide 1b MEDYVNFNFTDFYCEKNNVRQFAS (human)
T2 construct: also called region amino acids 25 to 48
T2 peptide: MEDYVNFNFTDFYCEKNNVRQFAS

T3: naked peptide MTPTDFTSPI (human)
T3 peptide: MTPTDFTSPI

T4: naked peptide TDFTSPIPNM (human)
T4 peptide: TDFTSPIPNM

T5: naked peptide TSPIPNMADD (human)
T5 peptide: TSPIPNMADD

T6: naked peptide IPNMADDYGS (human)
T6 peptide: IPNMADDYGS

T7: naked peptide MADDYGSEST (human)
T7 peptide: MADDYGSEST

T8: naked peptide DYGSESTSSM (human)
T8 peptide: DYGSESTSSM

T9: naked peptide SESTSSMEDY (human)
T9 peptide: SESTSSMEDY

T10: naked peptide TSSMEDYVNF (human)
T10 peptide: TSSMEDYVNF

T11: naked peptide SSMEDYVNFN (human)
T11 peptide: SSMEDYVNFN

T12: naked peptide SMEDYVNFNF (human)
T12 peptide: SMEDYVNFNF

T13: naked peptide MEDYVNFNFT (human)
T13 peptide: MEDYVNFNFT

T14: naked peptide YVNFNFTDFY (human)
T14 peptide: YVNFNFTDFY

T15: naked peptide FNFTDFYCEK (human)
T15 peptide: FNFTDFYCEK

T16: naked peptide TDFYCEKNNV (human)
T16 peptide: TDFYCEKNNV

T17: naked peptide YCEKNNVRQF (human)
T17 peptide: YCEKNNVRQF

T18: naked peptide KNNVRQFAS (human)
T18 peptide: KNNVRQFAS

T19: biotin-peptide TSPIPNMADD (human)
T19 peptide: Biotin-TSPIPNMADD

T20: biotin-peptide IPNMADDYGS (human)
T20 peptide: Biotin-IPNMADDYGS

T21: biotin-peptide MADDYGSEST (human)
T21 peptide: Biotin-MADDYGSEST

T22: biotin-peptide TSSMEDYVNF (human)
T22 peptide: Biotin-TSSMEDYVNF

T23: biotin-peptide MEDYVNFNFT (human)
T23 peptide: Biotin-MEDYVNFNFT

T24: biotin-peptide FNFTDFYCEK (human)
T24 peptide: Biotin-FNFTDFYCEK

T25: biotin-peptide TDFYCEKNNV (human)
T25 peptide: Biotin-TDFYCEKNNV

T26: biotin-peptide KNNVRQFAS (human)
T26 peptide: Biotin-KNNVRQFAS

B1: CCR9_HUM2 scFv (humanized anti-CCR9 scFv, SEQ ID NO: 17 with C-terminal 6xHis tag) (scFv)
scFv: QVQLVQSGAEVKKPGASVKVSCTASGYSFTDYIIYWVKQAHGQSLEWMGYIDPNNYNTRYSQKFQGKVTITVDKSSTSAYMELNSLTSDDTAVYYCARDVYWGQGTTVTVSSGGGGSGGGGSGGGGSGGGGSDVVMTQTPLSLSVTPGQPASISCRSSQSLVHSNGKTYLQWYLQKPGQSPKLLIYKVSNRFSGVPDRFSGSGSGTDFTLKISRVEAEDVGVYFCAQSTHVWTFGGGTKVEIKRAHHHHHH
B2: Comparative antibody 3 (Comp-3) scFv, SR_92R (Somovilla-Crespo et al. 2018), His-tagged (scFv)
scFv: EVKLEESGGGLVQPGGSMKLSCVASGFTFNKFWMNWVRQSPEKGLEWVAEIRLKSNNYATHYAESVKGRFTISRDDSKSSVYLQMNNLRAEDTGIYYCASDGWFAYWGQGTLVTVSAGGGGSGGGGSGGGGSGGGGSDVVMTQTPLSLPVSLGDQASISCRSSQSLVHSNGNTYLNWCLQRPGQSPKSLIYKVSNRFSGVPDRFSGSGSGTDFTLKISRVEAEDLGVYFCSQSTHFPRTFGGGTKLEIKRHHHHHH
B3: Comparative antibody 2 (Comp-2) scFv, 243LO326 (VH SEQ ID NO: 51 and VL SEQ ID NO: 52 of WO 2022/195028 A2), His-tagged (scFv)
scFv: QVQLVQSGAEVKKPGASVKVSCKASGYTFTSYWMHWVRQAPGQGLEWIGVIYPGNSDTRYNQKFKGRVTITRDTSASTAYMELSSLRSEDTAVYYCTRDYYSNYVYYYAMDYWGQGTTVTVSSGGGGSGGGGSGGGGSGGGGSDIVMTQTPLSLPVTPGEPASISCRSSQSLVHPNRNTYLHWYLQKPGQSPQLLIYKVSNRFSGVPDRFSGSGSGTDFTLKISRVEAEDVGVYYCSQSTHVPWTFGQGTKLEIKHHHHHH

Target: T1, naked peptide 1a …
Test: ELISA naked 24-mer; repI

In order of rising OD450:
1. B1  0.05 OD
2. B3  0.09 OD
3. B2  1.38 OD

Target: T2, naked peptide 1b …
Test: ELISA naked 24-mer; repI

In order of falling OD450:
1. B1  2.22 OD
2. B3  1.97 OD
3. B2  0.11 OD

Target: T1, naked peptide 1a …
Test: ELISA naked 24-mer; repII

In order of rising OD450:
1. B1  0.08 OD
2. B3  0.08 OD
3. B2  1.35 OD

Target: T2, naked peptide 1b …
Test: ELISA naked 24-mer; repII

In order of falling OD450:
1. B1  2.24 OD
2. B3  2.01 OD
3. B2  0.09 OD

Target: T3, naked peptide MTPTDFTSPI
Test: ELISA naked peptide; scFv 1 ug/mL; repI
Procedure: (§1) The peptides were synthesized naked or with a N-terminal Biotin modification with a purity of >98%. All four scFvs were verified by ELISA that can be detected with anti-His antibodies. ELISA was performed for scFv-peptide binding validation. Briefly, naked peptides were coated (50 μg/mL) in 0.58M carbonate-bicarbonate buffer pH9.5, 100 μL/well, 4° C. O/N. Then after blocking (3% BSA-PBS, 300 μL/well 37° C. 1.5 h) and washing (PBS+Tween-20 0.05% v/v (0.05% PBST), wells were incubated with each purified scFv antibody at concentration of 1 μg/mL in PBS at 37° C. 1 h. After washing (0.05% PBST), wells were incubated with secondary antibodies (goat anti-His IgG-HRP) in PBS, 37° C., 30 min. After washing, and incubation with TMB substrate, reactions were stopped with 2M HCl and reading was quantified at OD450.
(§2) Then a library of overlapping peptides were designed and constructed separately to produce 16 different peptides, covering full antigen sequence of total 48 aa. Peptide size was 10aa, with 7aa overlapping and ELISA screening of scFv against each peptide was performed in duplicate. Screening was performed using naked peptides in a standard plate or biotinylated peptides using avidin-plates.

In order of rising OD450:
1. B2  0.02 OD
2. B3  0.03 OD
3. B1  0.04 OD

Target: T4, naked peptide TDFTSPIPNM
Test: ELISA naked peptide; scFv 1 ug/mL; repI
Procedure: as §1, §2

In order of rising OD450:
1. B3  0.04 OD
2. B1  0.05 OD
3. B2  0.07 OD

Target: T5, naked peptide TSPIPNMADD
Test: ELISA naked peptide; scFv 1 ug/mL; repI
Procedure: as §1, §2

In order of rising OD450:
1. B2  0.02 OD
2. B3  0.02 OD
3. B1  0.03 OD

Target: T6, naked peptide IPNMADDYGS
Test: ELISA naked peptide; scFv 1 ug/mL; repI
Procedure: as §1, §2

In order of falling OD450:
1. B1  0.02 OD
2. B2  0.02 OD
3. B3  0.02 OD

Target: T7, naked peptide MADDYGSEST
Test: ELISA naked peptide; scFv 1 ug/mL; repI
Procedure: as §1, §2

In order of falling OD450:
1. B1  0.03 OD
2. B2  0.02 OD
3. B3  0.02 OD

Target: T8, naked peptide DYGSESTSSM
Test: ELISA naked peptide; scFv 1 ug/mL; repI
Procedure: as §1, §2

In order of falling OD450:
1. B2  0.03 OD
2. B1  0.02 OD
3. B3  0.02 OD

Target: T9, naked peptide SESTSSMEDY
Test: ELISA naked peptide; scFv 1 ug/mL; repI
Procedure: as §1, §2

In order of falling OD450:
1. B1  0.03 OD
2. B2  0.03 OD
3. B3  0.03 OD

Target: T10, naked peptide TSSMEDYVNF
Test: ELISA naked peptide; scFv 1 ug/mL; repI
Procedure: as §1, §2

In order of rising OD450:
1. B1  0.03 OD
2. B3  0.03 OD
3. B2  0.04 OD

Target: T11, naked peptide SSMEDYVNFN
Test: ELISA naked peptide; scFv 1 ug/mL; repI
Procedure: as §1, §2

In order of rising OD450:
1. B2  0.09 OD
2. B3  0.1 OD
3. B1  0.9 OD

Target: T12, naked peptide SMEDYVNFNF
Test: ELISA naked peptide; scFv 1 ug/mL; repI
Procedure: as §1, §2

In order of rising OD450:
1. B3  0.03 OD
2. B2  0.05 OD
3. B1  1.54 OD

Target: T13, naked peptide MEDYVNFNFT
Test: ELISA naked peptide; scFv 1 ug/mL; repI
Procedure: as §1, §2

In order of rising OD450:
1. B3  0.04 OD
2. B2  0.05 OD
3. B1  0.84 OD

Target: T14, naked peptide YVNFNFTDFY
Test: ELISA naked peptide; scFv 1 ug/mL; repI
Procedure: as §1, §2

In order of falling OD450:
1. B1  0.03 OD
2. B2  0.03 OD
3. B3  0.02 OD

Target: T15, naked peptide FNFTDFYCEK
Test: ELISA naked peptide; scFv 1 ug/mL; repI
Procedure: as §1, §2

In order of rising OD450:
1. B3  0.03 OD
2. B1  0.04 OD
3. B2  0.05 OD

Target: T16, naked peptide TDFYCEKNNV
Test: ELISA naked peptide; scFv 1 ug/mL; repI
Procedure: as §1, §2

In order of falling OD450:
1. B1  0.05 OD
2. B2  0.03 OD
3. B3  0.03 OD

Target: T17, naked peptide YCEKNNVRQF
Test: ELISA naked peptide; scFv 1 ug/mL; repI
Procedure: as §1, §2

In order of rising OD450:
1. B1  0.04 OD
2. B2  0.04 OD
3. B3  0.05 OD

Target: T18, naked peptide KNNVRQFAS
Test: ELISA naked peptide; scFv 1 ug/mL; repI
Procedure: as §1, §2

In order of falling OD450:
1. B2  0.05 OD
2. B3  0.04 OD
3. B1  0.03 OD

Target: T19, biotin-peptide TSPIPNMADD
Test: ELISA biotin-peptide; scFv 10 ug/mL; repI
Procedure: as §1
(§3) Then a library of overlapping peptides were designed and constructed separately to produce 16 different peptides, covering full antigen sequence of total 48 aa. Peptide size was 10aa, with 7aa overlapping and ELISA screening of scFv against each peptide was performed in duplicate. Screening was performed using naked peptides in a standard plate or biotinylated peptides using avidin-plates. The list of overlapping peptides was as follows:
(§4) ELISA with biotin-conjugated peptides (5 μg/mL) was performed very similar to described above with minor modifications.

In order of falling OD450:
1. B2  1.6 OD
2. B1  0.09 OD
3. B3  0.04 OD

Target: T20, biotin-peptide IPNMADDYGS
Test: ELISA biotin-peptide; scFv 10 ug/mL; repI
Procedure: as §1, §3, §4

In order of falling OD450:
1. B2  1.59 OD
2. B1  0.14 OD
3. B3  0.1 OD

Target: T21, biotin-peptide MADDYGSEST
Test: ELISA biotin-peptide; scFv 10 ug/mL; repI
Procedure: as §1, §3, §4

In order of falling OD450:
1. B1  0.09 OD
2. B2  0.09 OD
3. B3  0.08 OD

Target: T22, biotin-peptide TSSMEDYVNF
Test: ELISA biotin-peptide; scFv 10 ug/mL; repI
Procedure: as §1, §3, §4

In order of falling OD450:
1. B1  2.05 OD
2. B2  0.1 OD
3. B3  0.08 OD

Target: T23, biotin-peptide MEDYVNFNFT
Test: ELISA biotin-peptide; scFv 10 ug/mL; repI
Procedure: as §1, §3, §4

In order of falling OD450:
1. B1  2.56 OD
2. B2  0.1 OD
3. B3  0.1 OD

Target: T24, biotin-peptide FNFTDFYCEK
Test: ELISA biotin-peptide; scFv 10 ug/mL; repI
Procedure: as §1, §3, §4

In order of rising OD450:
1. B1  0.05 OD
2. B2  0.09 OD
3. B3  1.45 OD

Target: T25, biotin-peptide TDFYCEKNNV
Test: ELISA biotin-peptide; scFv 10 ug/mL; repI
Procedure: as §1, §3, §4

In order of rising OD450:
1. B3  0.06 OD
2. B1  0.08 OD
3. B2  0.08 OD

Target: T26, biotin-peptide KNNVRQFAS
Test: ELISA biotin-peptide; scFv 10 ug/mL; repI
Procedure: as §1, §3, §4

In order of rising OD450:
1. B1  0.07 OD
2. B3  0.08 OD
3. B2  0.09 OD
